Test results from patent US20180086841A1 (Merck Sharp & Dohme, published 2018).
Numbering of substitutions follows the chain as printed.

Tests used:
[1] = molecular target: T1, V30A; assay: flow cytometry on CHO-K1 transfectants, left sub-column
T1 construct: also called hCD27 V30A
T1 receptor chain: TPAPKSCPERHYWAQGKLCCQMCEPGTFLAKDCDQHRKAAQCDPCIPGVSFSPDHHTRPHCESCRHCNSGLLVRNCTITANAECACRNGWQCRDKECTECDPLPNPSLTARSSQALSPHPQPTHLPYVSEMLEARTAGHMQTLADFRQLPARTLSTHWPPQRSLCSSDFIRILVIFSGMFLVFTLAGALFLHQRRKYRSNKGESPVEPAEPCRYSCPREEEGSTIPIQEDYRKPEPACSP
Description: (§1) The hCD27 variants that were tested are listed. Amino acids correspond to the UniProt P26842-1 sequence. Amino acids 1-20 constitute the signal peptide. Binding is expressed as the geometric mean of the FITC signal, relative to antibody binding to hCD27, which was set at 100%.
(§2) The ability of several anti-hCD27 antibodies to bind to a series of hCD27 alanine mutants was determined using CHO-K1 cells, transiently transfected pCI-neo empty vector, pCI-neo.hCD27 and several pCI-neo.CD27Ala mutant constructs.
(§3) Detached cells were transferred to 96 wells round-bottomed well plates at approximately 1.2×10⁵ cells/well. After spinning down the cells, discarding the supernatants and re-suspending the cells in the residual volume, the primary antibodies were added and incubated for 30 minutes at 4° C. Cells were washed three times with DPBS/BSA 1%, followed by centrifugation, discarding of the supernatants and re-suspension in the residual volume. […] After washing once, antibody binding was detected using the HTS plate reader (FACS Canto II) and FlowJo software for data analysis. Debris, dead cells and doublets were excluded from the analysis. Binding was expressed as the geometric mean of the FITC signal, relative to antibody binding to hCD27, which was set at 100%.

[2] = molecular target: T2, R87A; assay: as above
T2 construct: also called hCD27 R87A
T2 receptor chain: T1 receptor chain with A30V, R87A
Description: as §1, §2, §3

[3] = molecular target: T3, R10A; assay: as above
T3 construct: also called hCD27 R10A
T3 receptor chain: T1 receptor chain with R10A, A30V
Description: as §1, §2, §3

[4] = molecular target: T4, F28A; assay: flow cytometry on CHO-K1 transfectants, right sub-column
T4 construct: also called hCD27 F28A
T4 receptor chain: T1 receptor chain with F28A, A30V
Description: as §1, §2, §3

[5] = molecular target: T5, I46A; assay: as above
T5 construct: also called hCD27 I46A
T5 receptor chain: T1 receptor chain with A30V, I46A
Description: as §1, §2, §3

[6] = molecular target: T6, H60A; assay: as above
T6 construct: also called hCD27 H60A
T6 receptor chain: T1 receptor chain with A30V, H60A
Description: as §1, §2, §3

[7] = molecular target: T7, G89A; assay: as above
T7 construct: also called hCD27 G89A
T7 receptor chain: T1 receptor chain with A30V, G89A
Description: as §1, §2, §3

[8] = molecular target: T8, W90A; assay: as above
T8 construct: also called hCD27 W90A
T8 receptor chain: T1 receptor chain with A30V, W90A
Description: as §1, §2, §3

[9] = molecular target: T9, E9A; assay: as above
T9 construct: also called hCD27 E9A
T9 receptor chain: T1 receptor chain with E9A, A30V
Description: as §1, §2, §3

[10] = molecular target: T3, R10A; assay: as above
Description: as §1, §2, §3

[11] = molecular target: T10, W13A; assay: as above
T10 construct: also called hCD27 W13A
T10 receptor chain: T1 receptor chain with W13A, A30V
Description: as §1, §2, §3

binding, WT hCD27 = 100 (GM FITC) [1]: 170% | binding, WT hCD27 = 100 (GM FITC) [2]: 153% | binding, WT hCD27 = 100 (GM FITC) [3]: 103% | binding, WT hCD27 = 100 (GM FITC) [4]: 57.1% | binding, WT hCD27 = 100 (GM FITC) [5]: 75% | binding, WT hCD27 = 100 (GM FITC) [6]: 129% | binding, WT hCD27 = 100 (GM FITC) [7]: 82.9% | binding, WT hCD27 = 100 (GM FITC) [8]: 102% | binding, WT hCD27 = 100 (GM FITC) [9]: 132% | binding, WT hCD27 = 100 (GM FITC) [10]: 108% | binding, WT hCD27 = 100 (GM FITC) [11]: 88.6%
B1: hCD27.131A (mouse parental 131A) (antibody, mouse IgG1, V domains shown)
VH: QIQLVQSGPELKKPGETVKISCKASGYTFTNYGMNWVKQAPGKGLKWMGWINTNTGEPTYAEEFKGRFAFSLETSATTAYLQINNLKNEDTATYFCAREGDAMDYWGQGTSVTVSS
VL: QIVLTQSPAIMSASPGEKVTMTCSASSSVSYMHWYQQKSGTSPKRWIYDTSKLASGVPARFSGSGSGTSYSLTISSMEAEDAATYYCQQWNSYPFTFGSGTKLEIK
notes: Mouse IgG1 antibody; also called mouse hCD27.131A
